These results are taken from patent US20200234789A1, “DESIGNED PROTEINS FOR LIGAND BINDING” (THE REGENTS OF THE UNIVERSITY OF CALIFORNIA, priority 2017, published 2020).

Bounds are passed on as bounds.

The data set can be described thus: Size exclusion chromatography (analytical gel filtration), oligomeric state. Type of data set: physicochemical. Conditions: 100 μM; 50 mM NaPi, 150 mM NaCl, pH 7.0; superdex 75 5/150. The text has this: FIG. 7A-7B. […] FIG. 7A: Analytical ultracentrifugation. Solutions of apo- and holo-PS1 were centrifuged at speeds ranging from 25,000 r.p.m. to 45,000 r.p.m. and monitored by absorbance at 280 nm. Parameters were globally fit to the data. Single-species fitting agrees well with the data over the entire range and yields the molecular weight of apo-PS1 […] and holo-PS1 12.24±0.91 kD, which agrees well with the 12.86 kD weight of PS1. […] Partial specific volumes were estimated from SEDNTERP^15 for amino acid side chains. FIG. 7B: Analytical gel filtration analysis of apo- and holo-PS1. Detection wavelengths are labeled as the same color as their respective curves. […] The small peak near 1.05 ml elution volume in holo-PS1 is unbound (excess), aggregated porphyrin eluting in the void volume of the superdex 75 5/150 column. Samples were run at concentrations of 100 μM and 37 μM for apo and holo, respectively, in 50 mM NaPi, 150 mM NaCl, pH 7.0 buffer.
Gel filtration profiles were obtained using a Superdex 75 5/150 column on an FPLC system (GE Healthcare AKTA). […] The approximate molecular weight (MWapp) was calculated from a standard curve obtained with the GE LMW standard protein kit. […]
On the technique in general: Size exclusion chromatography separates by hydrodynamic size, large species first.

B1: PS1: de novo designed porphyrin-binding four-helix bundle protein; designed sequence SEQ ID NO:1, expressed His-tag-cleaved sequence SEQ ID NO:2 (protein)
chain: SEFEKLRQTGDELVQAFQRLREIFDKGDDDSLEQVLEEIEELIQKHRQLFDNRQEAADTEAAKQGDQWVQLFQRFREAIDKGDKDSLEQLLEELEQALQKIRELAEKKN
For the molecule B1, the “degree of dimerization relative to the monomer peak” value is recorded as < 5%.
